Experimental findings from US20090232794A1 (published 2009) are described below.

The target of experiment [1] is T1, purified human C1q protein (human, UniProt P02745 23-245; P02746 28-253; P02747 29-245). Kind of experiment: purified human C1q on transfected cells, anti-C1q-FITC immunofluorescence.
The target of experiment [2] is T1, purified human C1q protein. Kind of experiment: purified human C1q on transfected COS7 cells, anti-C1q-FITC immunofluorescence. The procedure:
COS7 cells were transfected with cDNA's encoding full-length NgR or PirB. […] Cells were washed four times with Hank's Buffered Saline Solution (HBSS), fixed for five minutes with 2% paraformaldehyde, washed four times with HBSS, and blocked for 15 minutes with 10% heat-inactivated goat serum (RIGS) in HBSS. […] Immunofluorescence was detected using a Zeiss Axioskop fluorescence microscope.

T1 sequence (P02745 23-245, chain 1 of 3): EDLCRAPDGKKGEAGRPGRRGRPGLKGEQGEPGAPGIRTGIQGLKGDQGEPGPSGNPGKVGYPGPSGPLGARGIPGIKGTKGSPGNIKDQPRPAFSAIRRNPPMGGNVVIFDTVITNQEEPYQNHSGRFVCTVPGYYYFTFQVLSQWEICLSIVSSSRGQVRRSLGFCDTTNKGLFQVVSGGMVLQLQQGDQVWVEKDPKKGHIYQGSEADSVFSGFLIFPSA
T1 sequence (P02746 28-253, chain 2 of 3): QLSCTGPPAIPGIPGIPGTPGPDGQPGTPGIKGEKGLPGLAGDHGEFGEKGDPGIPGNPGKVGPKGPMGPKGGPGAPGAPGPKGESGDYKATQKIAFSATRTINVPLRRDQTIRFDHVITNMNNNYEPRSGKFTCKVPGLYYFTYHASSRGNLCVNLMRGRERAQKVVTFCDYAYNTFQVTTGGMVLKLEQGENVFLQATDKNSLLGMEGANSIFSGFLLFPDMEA
T1 sequence (P02747 29-245, chain 3 of 3): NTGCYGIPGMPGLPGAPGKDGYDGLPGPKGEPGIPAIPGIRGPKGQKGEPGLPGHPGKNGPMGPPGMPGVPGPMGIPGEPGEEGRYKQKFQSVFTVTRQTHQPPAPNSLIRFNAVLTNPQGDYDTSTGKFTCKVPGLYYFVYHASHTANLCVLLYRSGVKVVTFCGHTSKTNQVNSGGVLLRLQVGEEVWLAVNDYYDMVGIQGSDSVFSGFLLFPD

B1: LILRB2, expressed on transfected COS7 cells (receptor)
chain: QTGTIPKPTLWAEPDSVITQGSPVTLSCQGSLEAQEYRLYREKKSASWITRIRPELVKNGQFHIPSITWEHTGRYGCQYYSRARWSELSDPLVLVMTGAYPKPTLSAQPSPVVTSGGRVTLQCESQVAFGGFILCKEGEDEHPQCLNSQPHARGSSRAIFSVGPVSPNRRWSHRCYGYDLNSPYVWSSPSDLLELLVPGVSKKPSLSVQPGPVVAPGESLTLQCVSDVGYDRFVLYKEGERDLRQLPGRQPQAGLSQANFTLGPVSRSYGGQYRCYGAYNLSSEWSAPSDPLDILITGQIHGTPFISVQPGPTVASGENVTLLCQSWRQFHTFLLTKAGAADAPLRLRSIHEYPKYQAEFPMSPVTSAHAGTYRCYGSLNSDPYLLSHPSEPLELVVSGPSMGSSPPPTGPISTPAGPEDQPLTPTGSDPQSGLGRHLGVVIGILVAVVLLLLLLLLLFLILRHRRQGKHWTSTQRKADFQHPAGAVGPEPTDRGLQWRSSPAADAQEENLYAAVKDTQPEDGVEMDTRAAASEAPQDVTYAQLHSLTLRRKATEPPPSQEREPPAEPSIYATLAIH
notes: also called ILT4; LIR2
B1: the binding result in experiment [1] is reported as “binds”.

B2: PirB (paired-immunoglobulin-like receptor B), full-length, expressed on transfected COS7 cells (receptor)
chain: SLPKPILRVQPDSVVSRWTKVTFFCEETIGANEYRLYKDGKLYKTVTKNKQKPANKAEFSLSNVDLRNAGQYRCSYSTQYKSSGYSDPLELVVTGDYWTPSLLAQASPVVTSGGYVTLQCESWHNDHKFILTVEGPQKLSWTQDSQYNYSTRKYHALFSVGPVTPNQRWICRCYSYDRNRPYVWSPPSESVELLVSGNLQKPTIKAEPGPVIASKRAMTIWCQGNLDAEVYFLHNEGSQKTQSTQTLQQPGNKGKFFIPSMTRQHAGQYRCYCYGSAGWSQPSDTLELVVTGIYEHYKPRLSVLPSPVVTAGGNMTLHCASDFHYDKFILTKEDKKFGNSLDTEHISSSRQYRALFIIGPTTPTHTGTFRCYGYFKNAPQLWSVPSDLQQILISGLSKKPSLLTHQGHILDPGMTLTLQCYSDINYDRFALHKVGGADIMQHSSQQTDTGFSVANFTLGYVSSSTGGQYRCYGAHNLSSEWSASSEPLDILITGQLPLTPSLSVKPNHTVHSGETVSLLCWSMDSVDTFILSKEGSAQQPLRLKSKSHDQQSQAEFSMSAVTSHLSGTYRCYGAQNSSFYLLSSASAPVELTVSGPIETSTPPPTMSMPLGGLHMYLKALIGVSVAFILFLFILIFILLRRRHRGKFRKDVQKEKDLQLSSGAEEPITRKGELQKRPNPAAATQEESLYASVEDMQTEDGVELNSWTPPEEDPQGETYAQVKPSRLRKAGHVSPSVMSREQLNTEYEQAEEGQGANNQAAESGESQDVTYAQLCSRTLRQGAAASPLSQAGEAPEEPSVYATLAAARPEAVPKDVEQ
notes: COS7 cells were transfected with cDNA encoding full-length PirB; In the antibody outgrowth assays the target is the PirB of mouse neurons
Consider B2, for which, in experiment [2], the binding result is reported as “binds”.
